{"source": "patent US20230416364A1", "binders": {"B1": {"name": "GS_hCD25.b (protein, part only; not given: Fusion partner and linker, part only)", "chain, part": "ELCDDDPPEIPHATFKAMAYKEGTMLNCECKRGFRRIKSGSLYMLCTGNSSHSSWDNQCQCTSSATRNTTKQVTPQPEEQKERKTTEMQSPMQPVDQASLPGHCREPPPWENEATERIYHFVVGQMVYYQCVQGYRALHRGPAESVCKMTHGKTRWTQPQLICTGEMETSQFPGEEKPQASPEGRPESETSCLVTTTDFQIQ"}, "B2": {"name": "GS_hCD25.d (protein, part only; not given: Fusion partner and linker, part only)", "chain, part": "ELCDDDPPEIPHATFKAMAYKEGTMLNCECKRGFRRIKSGSLYMLCTGNSSHSSWDNQCQCTSSATRNTTKQVTPQPEEQKERKTTEMQSPMQPVDQASLPGHCREPPPWENEATERIYHFVVGQMVYYQCVQGYRALHRGPAESVCKMTHGKTRWTQPQLICTG"}}, "molecular_target": "human IL-2 (Miltenyi) (human) (UniProt P60568)", "sequence (P60568 21-153 limits assumed)": "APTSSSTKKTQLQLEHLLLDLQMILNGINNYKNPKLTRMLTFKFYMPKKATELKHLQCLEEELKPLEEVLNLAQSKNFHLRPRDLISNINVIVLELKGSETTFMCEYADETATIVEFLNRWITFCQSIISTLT", "assay": "SPR"}
{"binder": "B1", "values": [{"measurement": "Kd", "value": 12, "unit": "nM"}, {"measurement": "kon", "value": "1.1e+07", "unit": "M⁻¹ s⁻¹"}]}
{"binder": "B2", "values": [{"measurement": "Kd", "value": 12, "unit": "nM"}, {"measurement": "koff", "value": 0.063, "unit": "s⁻¹"}, {"measurement": "kon", "value": "5.4e+06", "unit": "M⁻¹ s⁻¹"}]}
